Patent publication US20240076396A1 (Regeneron, published 2024)

B5: hGITR.mmH (soluble monomeric recombinant human GITR ectodomain protein) (receptor)
chain: QRPTGGPGCGPGRLLLGTGTDARCCRVHTTRCCRDYPGEECCSEWDCMCVQPEFHCGDPCCTTCRHHPCPPGQGVQSQGKFSFGFQCIDCASGTFSGGHEGHCKPWTDCTQFGFLTVFPGNKTHNAVCVPGSPPAEPEQKLISEEDLGGEQKLISEEDLHHHHHH
notes: also called monomeric human GITR

Experiments:
[1] = target: B5; assay: SPR Biacore 2000 25C; CHOt supernatant antibody captured on anti-human Fc
Method: (§1) Biacore experiments for antibodies secreted in conditioned culture medium were performed as follows. Using a Biacore 2000 instrument at 25° C., antibodies were captured for 80 seconds at a flow rate of 8 uL/min on a CM5 anti-humanFc-coupled surface. Approximately 1000-2000 RU of each antibody were captured. 100 nM hGITR.mmH (soluble monomeric hGITR, SEQ ID NO: 45) or 50 nM hGITR.mFc (dimeric Macaca fasicularis GITR, SEQ ID NO: 46) were injected over this surface for 2 minutes at a flow rate of 50 uL/min. Dissociation was measured for 2 minutes. The KD and t_{1/2} were calculated by fitting the double-referenced sensorgrams to a 1:1 binding model.

[2] = target: T1, hGITR.mFc (dimeric recombinant human GITR ectodomain protein, mouse Fc fusion) (human); assay: as above
T1 construct: also called dimeric human GITR; dimeric GITR
T1 chain: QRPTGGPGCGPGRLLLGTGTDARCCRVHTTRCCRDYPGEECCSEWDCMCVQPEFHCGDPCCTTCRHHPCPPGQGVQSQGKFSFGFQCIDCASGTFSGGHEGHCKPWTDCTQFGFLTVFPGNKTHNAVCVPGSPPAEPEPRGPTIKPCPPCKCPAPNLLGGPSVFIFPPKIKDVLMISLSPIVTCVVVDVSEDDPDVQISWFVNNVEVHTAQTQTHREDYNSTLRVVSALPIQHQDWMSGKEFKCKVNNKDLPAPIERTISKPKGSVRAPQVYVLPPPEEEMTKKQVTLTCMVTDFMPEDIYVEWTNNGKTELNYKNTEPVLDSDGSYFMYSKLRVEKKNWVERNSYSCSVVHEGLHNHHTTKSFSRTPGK
Method: as §1

[3] = target: human GITR-L (6His.GCN4.G4Sx3.hGITR-L) (human, UniProt Q9UNG2 52-177); assay: ELISA: hGITR.mmH (3.4 pM to 200 nM) on plate-coated hGITR-L, anti-cMyc-HRP detection
Method: FIG. 13 depicts effects of anti-GITR antibody on human GITR binding to human GITR-L. Binding of human GITR protein, hGITR.mmH, at a range of concentrations (3.4 pM to 200 nM) to immobilized human GITR-L was evaluated by ELISA and EC₅₀ values for binding were determined. A fixed concentration of recombinant hGITR.mmH (1.5 nM), based on the EC₅₀ values calculated for binding to hGITR-L, was pre-incubated with mAb1, or an IgG1 isotype control at a range of concentrations (51 pM to 3 μM) and added to wells containing immobilized human GITR-L to determine the ability of the antibodies to block hGITR.mmH binding to immobilized human GITR-L. Binding of hGITR.mmH was detected with an HRP-conjugated cMyc antibody using TMB substrate, and the OD₄₅₀ was measured by spectrophotometry.
The binding of recombinant hGITR to its ligand, hGITR-L, was determined using an enzyme-linked immunosorbent assay (ELISA)-based binding assay. […] Plate-bound hGITR.mmH was detected with horseradish peroxidase (HRP) conjugated goat anti-cMyc antibody at 0.33 μg/ml and visualized using the colorimetric HRP substrate 3-3′, 5-5′-tetramethylbenzidine (TMB) according to the manufacturer's recommended procedures. Absorbance data at 450 nm (OD₄₅₀) were plotted as a function of the concentration of recombinant hGITR.mmH. […]

Sequence of human GITR-L (6His.GCN4.G4Sx3.hGITR-L) (Q9UNG2 52-177): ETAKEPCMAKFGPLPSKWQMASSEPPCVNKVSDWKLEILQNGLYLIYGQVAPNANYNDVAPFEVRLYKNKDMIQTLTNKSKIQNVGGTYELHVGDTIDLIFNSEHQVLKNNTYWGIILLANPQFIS

B1: CompAb1 heavy chain variant N101H (antibody, human IgG1, V domains shown)
VH: QVQLQESGPGLVKPSETLSLTCIVSGGSISGYFWNWIRQPPGKGLEWIGYIYYSGTTIYNPSLKSRFTISLDTSKNQFSLKLTSVTAADTAVYYCARESYHPSPRYFDHWGQGTLVTVSS
VL: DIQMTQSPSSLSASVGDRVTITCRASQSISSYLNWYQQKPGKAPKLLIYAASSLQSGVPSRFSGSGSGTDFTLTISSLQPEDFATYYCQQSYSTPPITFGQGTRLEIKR
notes: human IgG1 constant region; tested as CHOt supernatant; also called Sample Number 7
[1]
  binding result: no binding (tested: 100 nM hGITR.mmH)
[2]
  binding result: no binding (tested: 50 nM hGITR.mFc)

B2: CompAb1 heavy chain variant N101P (antibody, human IgG1, V domains shown)
VH: QVQLQESGPGLVKPSETLSLTCIVSGGSISGYFWNWIRQPPGKGLEWIGYIYYSGTTIYNPSLKSRFTISLDTSKNQFSLKLTSVTAADTAVYYCARESYPPSPRYFDHWGQGTLVTVSS
VL: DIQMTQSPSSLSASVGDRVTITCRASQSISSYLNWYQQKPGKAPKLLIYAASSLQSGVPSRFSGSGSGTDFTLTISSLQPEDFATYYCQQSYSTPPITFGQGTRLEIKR
notes: human IgG1 constant region; tested as CHOt supernatant; also called Sample Number 12
[1]
  binding result: no binding (tested: 100 nM hGITR.mmH)
[2]
  binding result: no binding (tested: 50 nM hGITR.mFc)

B3: CompAb1 heavy chain variant N101W (antibody, human IgG1, V domains shown)
VH: QVQLQESGPGLVKPSETLSLTCIVSGGSISGYFWNWIRQPPGKGLEWIGYIYYSGTTIYNPSLKSRFTISLDTSKNQFSLKLTSVTAADTAVYYCARESYWPSPRYFDHWGQGTLVTVSS
VL: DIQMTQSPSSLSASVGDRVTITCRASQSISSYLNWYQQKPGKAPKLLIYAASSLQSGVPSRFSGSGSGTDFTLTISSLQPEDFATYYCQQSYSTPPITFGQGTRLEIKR
notes: human IgG1 constant region; tested as CHOt supernatant; also called Sample Number 18
[1]
  binding result: no binding (tested: 100 nM hGITR.mmH)
[2]
  binding result: no binding (tested: 50 nM hGITR.mFc)

B4: CompAb1 heavy chain variant N101Y (antibody, human IgG1, V domains shown)
VH: QVQLQESGPGLVKPSETLSLTCIVSGGSISGYFWNWIRQPPGKGLEWIGYIYYSGTTIYNPSLKSRFTISLDTSKNQFSLKLTSVTAADTAVYYCARESYYPSPRYFDHWGQGTLVTVSS
VL: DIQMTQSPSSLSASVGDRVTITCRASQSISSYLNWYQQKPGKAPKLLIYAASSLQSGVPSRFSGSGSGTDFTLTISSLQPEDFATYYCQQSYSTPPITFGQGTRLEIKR
notes: human IgG1 constant region; tested as CHOt supernatant; also called Sample Number 19
[1]
  binding result: no binding (tested: 100 nM hGITR.mmH)
[2]
  binding result: no binding (tested: 50 nM hGITR.mFc)

## B5
[3]
  EC50: 2.05 nM
